# Data: US9744212B2, “Galectin-3C combination therapy for human cancer” (Texas Tech University System, priority 2011, dated 2017)
# B1: Gal-3C: N-terminally truncated human galectin-3 consisting of 143 carboxy-terminal amino acid residues, SEQ ID NO: 1 (protein)
# chain: GAPAGPLIVPYNLPLPGGVVPRMLITILGTVKPNANRIALDFQRGNDVAFHFNPRFNENNRRVIVCNTKLDNNWGREERQSVFPFESGKPFKIQVLVEPDHFKVAVNDAHLLQYNHRVKKLNEISKLGISGDIDITSASYTMI
# System: MM cell lines (ARP-1, ARK-B, U266, 8226/Dox, MM-1S, MM-RL, NCI-H929, RMPI-8266)
# Experiment: Cell proliferation (viability) assays of MM cell lines
# Format: cell-based, human
# Details: all eight cell lines, at one or more concentrations (0.5, 1, 2 or 4 μg/ml); 48 hours; P<0.05; magnitude slight
# Method: EXAMPLE 3 illustrates Gal-3C inhibits proliferation of MM cells. Cell Proliferation (Viability) Assays. Cell proliferation was assessed with a ViaLight Plus Cell Proliferation and Cytotoxicity BioAssay Kit (Lonza, Walkersville, Md., USA) according to the directions of the manufacturer. In brief, myeloma cells were seeded (8,000 per well) in 50 μL of RPMI-1640 with 10% heat-inactivated FBS (growth medium) in 96-well plates. HUVEC cells were seeded (10,000/well) in 50 μl EGM-2 medium in 96-well plates. Gal-3C (2× concentration) in 50 μL of growth medium was added to triplicate wells and the plate kept at the CO2 incubator at 37° C. for 48 hour. For the ViaLight assay, 50 μL of lysis buffer was added to each well, the plate was incubated for 10 minutes, after which 50 μL of cell lysate from each well was transferred to a solid white Lumitrac-200 plate and 50 μL of reconstituted AMR Plus was added. Luminescence was measured with a 1-s integrated setting in a Berthold luminometer after 2 minutes. […] Fluorescence intensity was measured at 590-nm on a Polarstar Galaxy (BMG Labtech, Cary, N.C.) microplate reader. The blank (growth media with 10 μl Alamar Blue) was subtracted from the raw fluorescence to obtain adjusted fluorescence readings. Triplicate data points were analyzed and the data shown are representative of 3 or more studies. […]
molecule,measurement,value
B1,proliferation of MM cells,significantly inhibited
